Source: the supplement of paper PMC9112550, “Optimization of the antimicrobial peptide Bac7 by deep mutational scanning” (BMC Biology, 2022)

System: Escherichia coli TOP10
Assay: shrunken log2 fold change of peptide-encoding DNA abundance (4.5 h post-induction vs induction); higher = less antimicrobial activity (less host growth inhibition)
Details: time post-induction: 4.5 h; library: site-saturation at positions 5, 18, 19, 20
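Further: peptides expressed intracellularly from a pBAD plasmid library in pooled LB shake-flask culture, induced with 0.3% L-arabinose, DNA abundance read by NGS, three biological replicates, DESeq2 with apeglm shrinkage.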

| Sequence | shrunken log2 fold change |
| --- | --- |
| RRIRYRPPRLPRPRPRPNTPPRP | -0.179 |
| RRIRTRPPRLPRPRPRPCDYPRP | -0.0715 |
| RRIRMRPPRLPRPRPRPWNRPRP | -0.51 |
| RRIRYRPPRLPRPRPRPVSDPRP | -0.379 |
| RRIRYRPPRLPRPRPRPANWPRP | -0.0751 |
| RRIRKRPPRLPRPRPRPHQCPRP | -0.0321 |
| RRIRYRPPRLPRPRPRPLKVPRP | -0.0432 |
| RRIRRRPPRLPRPRPRPSLSPRP | 2.85 |
| RRIRNRPPRLPRPRPRPFFDPRP | -0.0739 |
| RRIRTRPPRLPRPRPRPDSEPRP | -0.182 |
| RRIRGRPPRLPRPRPRPAKCPRP | -0.0198 |
| RRIRTRPPRLPRPRPRPQTRPRP | 0.145 |
| RRIRVRPPRLPRPRPRPVKPPRP | 0.247 |
| RRIRNRPPRLPRPRPRPPEMPRP | 0.0979 |
| RRIRSRPPRLPRPRPRPYLNPRP | -0.564 |
| RRIRFRPPRLPRPRPRPMANPRP | -0.104 |
| RRIRLRPPRLPRPRPRPQHEPRP | -0.0398 |
| RRIRERPPRLPRPRPRPWEWPRP | 0.0992 |
| RRIRGRPPRLPRPRPRPCGPPRP | 1.29 |
| RRIRGRPPRLPRPRPRPSSWPRP | 1.05 |
| RRIRSRPPRLPRPRPRPMGTPRP | 0.194 |
| RRIRNRPPRLPRPRPRPWPKPRP | 0.0323 |
| RRIRKRPPRLPRPRPRPRSKPRP | 0.254 |
| RRIRKRPPRLPRPRPRPSGQPRP | 0.244 |
| RRIRRRPPRLPRPRPRPLRSPRP | 0.531 |

| Sequence | shrunken log2 fold change |
| --- | --- |
| RRIRMRPPRLPRPRPRPKVGPRP | 1.27 |
| RRIRGRPPRLPRPRPRPVIPPRP | 0.000617 |
| RRIRTRPPRLPRPRPRPLKNPRP | -0.397 |
| RRIRWRPPRLPRPRPRPYPIPRP | 0.0625 |
| RRIRYRPPRLPRPRPRPYHYPRP | -0.556 |
| RRIRFRPPRLPRPRPRPCYYPRP | -0.401 |
| RRIRVRPPRLPRPRPRPTYRPRP | -0.594 |
| RRIRTRPPRLPRPRPRPRWMPRP | 0.0454 |
| RRIRCRPPRLPRPRPRPAPSPRP | 0.504 |
| RRIRFRPPRLPRPRPRPCDHPRP | -0.0275 |
| RRIRNRPPRLPRPRPRPLVSPRP | -0.185 |
| RRIRSRPPRLPRPRPRPRTVPRP | 0.106 |
| RRIRRRPPRLPRPRPRPFDHPRP | -0.242 |
| RRIRSRPPRLPRPRPRPLCNPRP | -0.278 |
| RRIRPRPPRLPRPRPRPQWQPRP | -0.109 |
| RRIRWRPPRLPRPRPRPRYDPRP | -0.248 |
| RRIRNRPPRLPRPRPRPGCEPRP | 0.212 |
| RRIRHRPPRLPRPRPRPWVDPRP | 0.0471 |
| RRIRTRPPRLPRPRPRPYSYPRP | -0.692 |
| RRIRLRPPRLPRPRPRPSVCPRP | 0.0879 |
| RRIRFRPPRLPRPRPRPFKLPRP | -0.0106 |
| RRIRVRPPRLPRPRPRPTNGPRP | 0.239 |
| RRIRVRPPRLPRPRPRPRDFPRP | 0.0486 |
| RRIRQRPPRLPRPRPRPCFPPRP | 0.121 |
| RRIRYRPPRLPRPRPRPYMNPRP | 0.0271 |

| Sequence | shrunken log2 fold change |
| --- | --- |
| RRIRRRPPRLPRPRPRPAFRPRP | 0.311 |
| RRIRVRPPRLPRPRPRPDWDPRP | 0.0311 |
| RRIRHRPPRLPRPRPRPIEYPRP | -0.129 |
| RRIRPRPPRLPRPRPRPRRWPRP | 0.56 |
| RRIRRRPPRLPRPRPRPLNSPRP | 0.134 |
| RRIRNRPPRLPRPRPRPLIWPRP | 0.0774 |
| RRIRCRPPRLPRPRPRPWGLPRP | -0.268 |
| RRIRQRPPRLPRPRPRPVFWPRP | 0.113 |
| RRIRMRPPRLPRPRPRPHHRPRP | -0.0556 |
| RRIRWRPPRLPRPRPRPEWGPRP | 0.47 |
| RRIRMRPPRLPRPRPRPDCYPRP | -0.15 |
| RRIRTRPPRLPRPRPRPDSDPRP | -0.65 |
| RRIRTRPPRLPRPRPRPACYPRP | -0.0845 |
| RRIRKRPPRLPRPRPRPFCPPRP | 0.0562 |
| RRIRSRPPRLPRPRPRPHVQPRP | 0.132 |
| RRIRHRPPRLPRPRPRPNLPPRP | -0.57 |
| RRIRDRPPRLPRPRPRPNNTPRP | -0.747 |
| RRIRNRPPRLPRPRPRPTAVPRP | 0.495 |
| RRIRSRPPRLPRPRPRPKTGPRP | -0.071 |
| RRIRVRPPRLPRPRPRPDQKPRP | 0.002 |
| RRIRRRPPRLPRPRPRPHWPPRP | 0.312 |
| RRIRNRPPRLPRPRPRPAEFPRP | 0.0274 |
| RRIRLRPPRLPRPRPRPEVIPRP | 0.178 |
| RRIRWRPPRLPRPRPRPPHVPRP | 0.444 |
| RRIRSRPPRLPRPRPRPHSHPRP | -0.282 |

| Sequence | shrunken log2 fold change |
| --- | --- |
| RRIRDRPPRLPRPRPRPHAGPRP | 0.0575 |
| RRIRTRPPRLPRPRPRPLWAPRP | 0.277 |
| RRIRRRPPRLPRPRPRPHKLPRP | 0.022 |
| RRIRERPPRLPRPRPRPGHSPRP | -0.134 |
| RRIRCRPPRLPRPRPRPMVAPRP | 0.0319 |
| RRIRWRPPRLPRPRPRPYRFPRP | -0.0166 |
| RRIRCRPPRLPRPRPRPDEYPRP | -0.231 |
| RRIRQRPPRLPRPRPRPRSAPRP | 0.319 |
| RRIRGRPPRLPRPRPRPLDPPRP | 0.9 |
| RRIRCRPPRLPRPRPRPQSPPRP | -0.0224 |
| RRIRDRPPRLPRPRPRPMEPPRP | 0.127 |
| RRIRDRPPRLPRPRPRPHWRPRP | 0.0876 |
| RRIRLRPPRLPRPRPRPSRTPRP | -0.204 |
| RRIRVRPPRLPRPRPRPWYAPRP | -0.299 |
| RRIRDRPPRLPRPRPRPCCVPRP | -0.158 |
| RRIRPRPPRLPRPRPRPTVLPRP | -0.225 |
| RRIRARPPRLPRPRPRPYPGPRP | 0.0384 |
| RRIRVRPPRLPRPRPRPKKSPRP | 0.585 |
| RRIRFRPPRLPRPRPRPTVMPRP | -0.0812 |
| RRIRNRPPRLPRPRPRPNAGPRP | -0.0954 |
| RRIRFRPPRLPRPRPRPSPYPRP | -0.481 |
| RRIRNRPPRLPRPRPRPRQYPRP | 0.0612 |
| RRIRIRPPRLPRPRPRPRACPRP | -0.148 |
| RRIRRRPPRLPRPRPRPWRRPRP | 0.358 |
| RRIRFRPPRLPRPRPRPKKRPRP | 0.3 |

| Sequence | shrunken log2 fold change |
| --- | --- |
| RRIRSRPPRLPRPRPRPALTPRP | 0.369 |
| RRIRRRPPRLPRPRPRPDSWPRP | 0.115 |
| RRIRSRPPRLPRPRPRPPELPRP | 0.629 |
| RRIRDRPPRLPRPRPRPFQGPRP | -0.181 |
| RRIRNRPPRLPRPRPRPEAFPRP | 0.0792 |
| RRIRHRPPRLPRPRPRPKAYPRP | 0.0124 |
| RRIRNRPPRLPRPRPRPTKNPRP | -0.0348 |
| RRIRQRPPRLPRPRPRPPSFPRP | 0.0399 |
| RRIRPRPPRLPRPRPRPPPEPRP | 0.492 |
| RRIRTRPPRLPRPRPRPTRPPRP | 0.614 |
| RRIRIRPPRLPRPRPRPMSYPRP | 0.0721 |
| RRIRYRPPRLPRPRPRPHGAPRP | -0.0794 |
| RRIRFRPPRLPRPRPRPVDKPRP | -0.022 |
| RRIRYRPPRLPRPRPRPLTTPRP | -0.404 |
| RRIRMRPPRLPRPRPRPWKAPRP | 0.0518 |
| RRIRSRPPRLPRPRPRPLWPPRP | 0.229 |
| RRIRHRPPRLPRPRPRPKFPPRP | 0.442 |
| RRIRSRPPRLPRPRPRPCFMPRP | 0.914 |
| RRIRSRPPRLPRPRPRPHRMPRP | -0.697 |
| RRIRDRPPRLPRPRPRPYGGPRP | -0.122 |
| RRIRQRPPRLPRPRPRPQAVPRP | 0.00748 |
| RRIRGRPPRLPRPRPRPWWSPRP | 0.00664 |
| RRIRARPPRLPRPRPRPVLNPRP | -0.0316 |
| RRIRDRPPRLPRPRPRPCVCPRP | -0.0348 |
| RRIRSRPPRLPRPRPRPCCKPRP | 0.0569 |

| Sequence | shrunken log2 fold change |
| --- | --- |
| RRIRYRPPRLPRPRPRPNHIPRP | -1.27 |
| RRIRSRPPRLPRPRPRPQNQPRP | -0.455 |
| RRIRQRPPRLPRPRPRPAKIPRP | 0.00963 |
| RRIRERPPRLPRPRPRPPTHPRP | 0.0517 |
| RRIRSRPPRLPRPRPRPQWMPRP | -0.155 |
| RRIRWRPPRLPRPRPRPQYCPRP | -0.198 |
| RRIRTRPPRLPRPRPRPEMVPRP | 0.134 |
| RRIRDRPPRLPRPRPRPVRMPRP | 0.059 |
| RRIRERPPRLPRPRPRPAHGPRP | 0.131 |
| RRIRHRPPRLPRPRPRPSHAPRP | 0.0238 |
| RRIRNRPPRLPRPRPRPPPNPRP | 1.04 |
| RRIRYRPPRLPRPRPRPNWIPRP | -0.312 |
| RRIRLRPPRLPRPRPRPFTFPRP | 0.0545 |
| RRIRERPPRLPRPRPRPCCDPRP | -0.362 |
| RRIRYRPPRLPRPRPRPSSPPRP | -0.631 |
| RRIRPRPPRLPRPRPRPACKPRP | 0.0686 |
| RRIRARPPRLPRPRPRPKCWPRP | 0.622 |
| RRIRVRPPRLPRPRPRPTFCPRP | -0.0418 |
| RRIRCRPPRLPRPRPRPTLTPRP | -0.14 |
| RRIRDRPPRLPRPRPRPHYMPRP | -0.231 |
| RRIRHRPPRLPRPRPRPAYFPRP | -0.833 |
| RRIRSRPPRLPRPRPRPNRNPRP | -0.163 |
| RRIRQRPPRLPRPRPRPVLQPRP | -0.107 |
| RRIRNRPPRLPRPRPRPKMFPRP | -0.00426 |
| RRIRKRPPRLPRPRPRPIIPPRP | 0.152 |
